Values quoted from earlier work, collected in publication PMC10065799, “High-throughput profiling of sequence recognition by tyrosine kinases and SH2 domains using bacterial peptide display” (eLife, 2023).

Target: PD1 phosphosite peptide (Homo sapiens) (UniProt Q15116)

Kd: 2000 nM
Substance: SHP2 N-SH2 (from UniProt Q06124)
